Entries after “also recorded” stand apart in the source; their conditions may differ. *: point of attachment. Cbz = O=C(OCc1ccccc1)*; CH2F = FC*
Assays:
[1] = system: MDA-MB-468 cells; assay: Apoptosis in MDA-MB-468 cells (DNA fragmentation ELISA, acridine orange staining); settings: MDA-MB-468 cells preincubated with inhibitor for 3 hours, then EBIP and dasatinib; FIG. 15B
[2] = system: MDA-MB-468 cells; assay: MTT growth assay and CalcuSyn synergy analysis in MDA-MB-468 cells; format: cell-based, human; settings: for Dasatinib (Fa): MDA-MB-468
Procedure: (§1) Growth inhibition assay included the following aspects. […] At the end of the treatment period, cells were incubated with 10% of 5 mg/mL stock of MTT and incubated for 3 hours at 37° C.
(§2) Analysis of interaction between two drugs included the following aspects. Combination index (CI) method adapted for in vitro anticancer drug testing was used to determine the nature of interaction between the two agents as described by Majumdar APN, Banerjee S, Nautiyal J, et al. Curcumin synergizes with resveratrol to inhibit colon cancer. […] Based on CI values, the extent of synergism/antagonism may be determined.

[3] = system: MDA-MB-231 cells; assay: MTT growth assay and CalcuSyn synergy analysis in MDA-MB-231 cells; format: cell-based, human
Procedure: as §1, §2

[4] = system: MDA-MB-468 xenografts; assay: MDA-MB-468 xenografts in SCID mice, tumor growth; format: in vivo
Procedure: Severe combined immunodeficient mice xenografts of MDA-MB-468 cells included the following aspects. […] When tumor burden reached 1,500 to 2,000 mg, mice were euthanized. The tumors were removed, cut into 20 to 30 mg fragment, and subsequently transplanted (s.c.) bilaterally into similarly conditioned 28 animals. […] Treatment was started on day 7 and continued until day 23. Animals and tumor burden were followed for up to 55 days. Tumor measurements were carried out at multiple time points during the experimental period. Mice were weighed and monitored for signs of toxicity. Tumor weights in SCID mice were estimated as tumor weight (mg)=(A×B2)/2, where A and B are the tumor length and width (in mm), respectively.

[5] = system: colon cancer HCT-116 cells; assay: MTT growth assay in colon cancer HCT-116 cells; format: cell-based
Procedure: as §1

[6] = target: T1, EGFR (Homo sapiens, UniProt P00533); assay: TGF-α-induced tyrosine phosphorylation of EGFR (Western blot); format: cell-based; settings: preincubation 10 μg/ml for 30 min; 10 nM TGF-α for 10 min; FIG. 4
T1 construct: endogenous in cells

[7] = system: c-Src; assay: TGF-α-induced phosphorylation of Src in HCT-116 cells (Western blot); format: cell-based; settings: prior exposure, FIG. 5
[8] = system: Erks (extracellular signal-regulated kinases); assay: TGF-α-induced phosphorylation of ERKs in HCT-116 cells (Western blot); format: cell-based; settings: prior exposure, FIG. 6
[9] = system: breast cancer SKBR-3 cells; assay: MTT growth assay in breast cancer SKBR-3 cells; format: cell-based, human; settings: increasing concentrations, 48 h; FIG. 7
Procedure: as §1

[10] = target: T2, HER-2 (Homo sapiens, UniProt P04626); assay: Heregulin-induced phosphorylation of HER-2 in MDA-MB-453 cells; format: cell-based; settings: preincubation, then heregulin, FIG. 8, FIG. 19
T2 construct: endogenous in cells; host or cells: MDA-MB-453
Excerpt: (§3) The breast cancer MDA-MB-453 cells contain high levels of HER-2 and HER-3. […] Binding of heregulin HER-3 leads to activation and subsequent heterodimerization of HER-3 with one or more EGFR family members.
(§4) Western blot analysis included the following aspects.

[11] = target: T3, HER-3 (Homo sapiens, UniProt P21860); assay: Heregulin-induced phosphorylation of HER-3 in MDA-MB-453 cells; format: cell-based; settings: preincubation, then heregulin, FIG. 8, FIG. 19
T3 construct: endogenous in cells; host or cells: MDA-MB-453
Excerpt: as §3, §4

[12] = system: breast cancer SKBR cell xenografts; assay: SKBR cell xenografts in SCID mice; format: in vivo; settings: FIG. 9
Excerpt: SKBR cells express high levels of HER-2 but contain little no HER-1/EGFR or HER-3.

T3 sequence (P21860 20-1342): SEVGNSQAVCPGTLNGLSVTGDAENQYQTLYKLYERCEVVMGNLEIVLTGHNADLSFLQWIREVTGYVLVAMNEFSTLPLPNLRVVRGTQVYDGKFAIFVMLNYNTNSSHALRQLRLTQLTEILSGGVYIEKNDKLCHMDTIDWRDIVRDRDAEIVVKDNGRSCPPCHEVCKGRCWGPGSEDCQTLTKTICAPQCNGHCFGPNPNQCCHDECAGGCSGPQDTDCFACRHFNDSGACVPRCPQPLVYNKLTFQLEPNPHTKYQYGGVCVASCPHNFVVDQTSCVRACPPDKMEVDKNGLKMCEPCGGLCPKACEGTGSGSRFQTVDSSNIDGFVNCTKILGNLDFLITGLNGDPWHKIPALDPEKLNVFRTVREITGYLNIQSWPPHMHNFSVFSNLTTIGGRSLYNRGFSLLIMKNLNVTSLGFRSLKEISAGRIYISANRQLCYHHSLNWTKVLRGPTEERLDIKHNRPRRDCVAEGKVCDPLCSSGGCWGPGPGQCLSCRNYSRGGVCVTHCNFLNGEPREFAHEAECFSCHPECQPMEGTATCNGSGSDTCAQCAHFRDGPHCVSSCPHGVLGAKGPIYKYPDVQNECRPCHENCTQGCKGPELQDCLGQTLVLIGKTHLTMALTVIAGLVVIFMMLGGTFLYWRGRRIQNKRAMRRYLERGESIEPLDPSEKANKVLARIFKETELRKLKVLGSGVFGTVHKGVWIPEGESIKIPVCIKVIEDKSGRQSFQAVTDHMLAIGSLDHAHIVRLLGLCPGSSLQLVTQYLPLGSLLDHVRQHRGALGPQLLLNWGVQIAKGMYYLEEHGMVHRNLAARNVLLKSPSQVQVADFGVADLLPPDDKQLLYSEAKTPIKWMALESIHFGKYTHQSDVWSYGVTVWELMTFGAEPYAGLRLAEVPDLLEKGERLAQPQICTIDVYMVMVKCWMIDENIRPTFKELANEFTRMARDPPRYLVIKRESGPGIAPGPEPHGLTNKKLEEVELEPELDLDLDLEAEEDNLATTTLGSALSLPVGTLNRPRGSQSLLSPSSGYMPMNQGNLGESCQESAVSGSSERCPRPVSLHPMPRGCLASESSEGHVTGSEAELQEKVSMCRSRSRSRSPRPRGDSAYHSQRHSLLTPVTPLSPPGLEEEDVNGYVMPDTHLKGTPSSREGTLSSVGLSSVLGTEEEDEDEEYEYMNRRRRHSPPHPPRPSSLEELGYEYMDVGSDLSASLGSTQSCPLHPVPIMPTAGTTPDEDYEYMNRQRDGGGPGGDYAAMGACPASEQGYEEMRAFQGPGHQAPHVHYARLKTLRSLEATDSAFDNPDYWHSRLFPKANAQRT

Cbz-LEHD-CH2F
effect of caspase inhibitor on apoptosis induction by the combined therapy [1]: blocked apoptosis induction by the combined therapy

Cbz-IETD-CH2F
effect of caspase inhibitor on apoptosis induction by the combined therapy [1]: blocked apoptosis induction by the combined therapy

Cc1nc(Nc2ncc(C(=O)Nc3c(C)cccc3Cl)s2)cc(N2CCN(CCO)CC2)n1 [Dasatinib, dasatinib]
Dasatinib (Fa) ([2]; Dasatinib 0.50 μM): 0.216
Dasatinib (Fa) ([2]; Dasatinib 1.0 μM): 0.286
Dasatinib (Fa) ([2]; Dasatinib 2.0 μM): 0.315
Dasatinib (Fa) ([2]; Dasatinib 4.0 μM): 0.382
Dasatinib (Fa) ([3]; Dasatinib 0.50 μM): 0.354
Dasatinib (Fa) ([3]; Dasatinib 1.0 μM): 0.322
Dasatinib (Fa) ([3]; Dasatinib 2.0 μM): 0.353
Dasatinib (Fa) ([3]; Dasatinib 4.0 μM): 0.392
tumor growth, significance of inhibition ([4]; P<0.05, FIG. 16, Table 3): no significant inhibition
tumor weight at the end of 55 days, Mean ± SD ([4]; day-55, dasatinib 10 mg/kg gavage and/or EBIP 25 μg/mouse s.c., every other day, day 7 to 23): 584 ± 189 mg
inhibition (suppression) of tumor growth ([4]; vs vehicle-treated controls, dasatinib 10 mg/kg gavage and/or EBIP 25 μg/mouse s.c., every other day): about 27%

B1: ERRP: rat ERRP that includes amino acids 1-478 and includes the U region (SEQ ID NO: 16); pan-erbB inhibitor (protein, listed as Rattus norvegicus)
chain: MRPSGTARTTLLVLLTALCAAGGALEEKKVCQGTSNRLTQLGTFEDHFLSLQRMYNNCEVVLGNLEITYVQRNYDLSFLKTIQEVAGYFLIALNTVERIPSEDLQIIRGNALYENTYALAILSNYGTNRTGLRELPMRNLQEILIGAVRFSNNPILCNMDTIQWRDIVQNVFMSNMSMDLQSHPSSCPKCDPSCPNGSCWGGGEENCQKLTKIICAQQCSHRCRGRSPSDCCHNQCAAGCTGPQKSDCLVCQKFQDEATCKDTCPPLMLYNPTTYQMDVNPEGKYSFGATCVKNCPRNYVVTDHGSCVRACGPDYYEVEEDGIRKCKKCDGPCRKVCNGIGIGEFKDTLSINATNIKHFKYCTAISGDLHILPVAFKGDSFTRTPPLDPRELEILKTVKEITGSLLIQAWPENWTDLHAFENLEIIRGRTKQHGQFSLAVVGLNITSLPWQVPSLSWQAVTRPLHPLAQNRVSWDTGP
inhibition of growth ([5]; dose of 20 μg/mL, vs corresponding controls, FIG. 18): 70%
attenuation of TGF-α-induced tyrosine phosphorylation of EGFR (amino acid 845) [6]: greatly abrogates this stimulation
attenuation of TGF-α-induced phosphorylation of Tyr416 of c-Src [7]: abrogated
attenuation of TGF-α-induced phosphorylation of Erks [8]: greatly attenuated
inhibition of growth of SKBR-3 cells [9]: markedly inhibit the growth in a dose-dependent manner
inhibition of heregulin-induced phosphorylation/activation of HER-2 [10]: able to inhibit; also recorded: about as equally effective as EBIP
inhibition of heregulin-induced phosphorylation/activation of HER-3 [11]: able to inhibit; also recorded: about as equally effective as EBIP
tumor growth of SKBR xenografts ([12]; SCID mice, vs vehicle): noticeably decreased
inhibition of tumor growth ([12]; intratumoral 50 μg once a day, day 13 to 26, end of 40 day period, vs controls): over 50%
inhibition of growth of MDA-MB-468 cells ([2]; immunoaffinity-purified protein, FIG. 12D): equally effective

B2: rEGFR-447: rat ERRP that includes amino acids 1-447 but lacks the U region (SEQ ID NO: 15) (protein, listed as Rattus norvegicus)
chain: MRPSGTARTTLLVLLTALCAAGGALEEKKVCQGTSNRLTQLGTFEDHFLSLQRMYNNCEVVLGNLEITYVQRNYDLSFLKTIQEVAGYFLIALNTVERIPSEDLQIIRGNALYENTYALAILSNYGTNRTGLRELPMRNLQEILIGAVRFSNNPILCNMDTIQWRDIVQNVFMSNMSMDLQSHPSSCPKCDPSCPNGSCWGGGEENCQKLTKIICAQQCSHRCRGRSPSDCCHNQCAAGCTGPQKSDCLVCQKFQDEATCKDTCPPLMLYNPTTYQMDVNPEGKYSFGATCVKNCPRNYVVTDHGSCVRACGPDYYEVEEDGIRKCKKCDGPCRKVCNGIGIGEFKDTLSINATNIKHFKYCTAISGDLHILPVAFKGDSFTRTPPLDPRELEILKTVKEITGSLLIQAWPENWTDLHAFENLEIIRGRTKQHGQFSLAVVGLNITS
inhibition of growth (MTT) ([5]; increasing doses, FIG. 3): only marginally effective
attenuation of TGF-α-induced tyrosine phosphorylation of EGFR (amino acid 845) [6]: do not attenuate
attenuation of TGF-α-induced phosphorylation of Tyr416 of c-Src [7]: less attenuation
attenuation of TGF-α-induced phosphorylation of Erks [8]: not
inhibition of growth of SKBR-3 cells [9]: neither rEGFR-447 nor hEGFR-501 caused any apparent change in the growth
inhibition of heregulin-induced phosphorylation/activation of HER-2 [10]: neither rEGFR-447 nor hEGFR-501 is effective; also recorded: neither rEGFR-447 nor hEGFR-501 re effective
inhibition of heregulin-induced phosphorylation/activation of HER-3 [11]: neither rEGFR-447 nor hEGFR-501 is effective; also recorded: neither rEGFR-447 nor hEGFR-501 re effective

Source: patent US20120121589A1, “MODIFIED EGFR ECTODOMAIN” (WAYNE STATE UNIVERSITY, priority 2009, published 2012)
